From patent US12077763B2, “RNA-based control of powdery mildew” (Greenlight Biosciences, Inc., priority 2021, dated 2024)

System: E. necator
Assay: Leaf disc assay, dry inoculum (settling tower), decrease in disease severity / hyphal growth (Example 2)
Details: decrease in disease severity (hyphal growth) relative to untreated control; time point 1 (untreated control hyphal growth ≥50%); value ± SE

Molecule	% decrease =/− SE TP1
GS3448 (nucleic acid) sense: GAAGAUACAAAUUUAUGCGCUAUUCAUGCUAAACGUGUUACUAUAAUGCAAAAAGACAUUCAGCUUGCAAGGCGAAUCAGAGGGGUUUGGGGUGGUUUAGGCUAGCUUUUUUAUUCUAAAUAUACCAGUGCCCGAAUUUGAUCUCCCUAAGCCACACCAUCGAGUUGAAAUGAUGAGAGGAAGAUGACGAGAAUAAAAUUAUUGUGAAUAUUCGUUAUAUGGAUAAGCGUAGAGGGGAUCUAAUACUUGUGAAUUGGUAAUCUUGAGUUAUCACUUUUUCUGGCGCAUCCAGCGACCCUAAGCAUAUGGACACUAGUGAUUGCGUCUUAGGGUUAUAGUAGCCAAGAGGAAUUUGAAGCACACAUAUUAGCACAGCAUAAUAAUAAAUAA antisense: UUAUUUAUUAUUAUGCUGUGCUAAUAUGUGUGCUUCAAAUUCCUCUUGGCUACUAUAACCCUAAGACGCAAUCACUAGUGUCCAUAUGCUUAGGGUCGCUGGAUGCGCCAGAAAAAGUGAUAACUCAAGAUUACCAAUUCACAAGUAUUAGAUCCCCUCUACGCUUAUCCAUAUAACGAAUAUUCACAAUAAUUUUAUUCUCGUCAUCUUCCUCUCAUCAUUUCAACUCGAUGGUGUGGCUUAGGGAGAUCAAAUUCGGGCACUGGUAUAUUUAGAAUAAAAAAGCUAGCCUAAACCACCCCAAACCCCUCUGAUUCGCCUUGCAAGCUGAAUGUCUUUUUGCAUUAUAGUAACACGUUUAGCAUGAAUAGCGCAUAAAUUUGUAUCUUC	19 ± 3%
GS3446 (nucleic acid) sense: ACCCGCAGGUACUCUUAUGCUUGGAGCUGAAGGUAUUAAAGAUGCCAUAACUGGCUUCGAAGAUGCUCGUAAAGUAGAUUUAAAGAAUGAAAGAUUGCCUCCAAGUCUUGAGGAAAUUACACGAACAAGUGAAGAGGAUAGAGCUCUGGCAUUAGAGAGGGCUAAGGAAAGUGCGGAUAAUGAUCGAGGGCUUCAGAUUUUAUCUAGAAGACUCAGUUUAGUUGGCACUCAACCAAAUAGACCGCAACCGAGUAAAAUUCUGAACUCUGUUCUAGCCCUCGAUAAAGAUGUUUCUGAGAAAUAAGAGGUCGAUCAGAGUCACCUCCUGUUACAAGCUCAUUGGUUGGUCUGCAGGUACAGAAUUACUAAUCAUACCACGA antisense: UCGUGGUAUGAUUAGUAAUUCUGUACCUGCAGACCAACCAAUGAGCUUGUAACAGGAGGUGACUCUGAUCGACCUCUUAUUUCUCAGAAACAUCUUUAUCGAGGGCUAGAACAGAGUUCAGAAUUUUACUCGGUUGCGGUCUAUUUGGUUGAGUGCCAACUAAACUGAGUCUUCUAGAUAAAAUCUGAAGCCCUCGAUCAUUAUCCGCACUUUCCUUAGCCCUCUCUAAUGCCAGAGCUCUAUCCUCUUCACUUGUUCGUGUAAUUUCCUCAAGACUUGGAGGCAAUCUUUCAUUCUUUAAAUCUACUUUACGAGCAUCUUCGAAGCCAGUUAUGGCAUCUUUAAUACCUUCAGCUCCAAGCAUAAGAGUACCUGCGGGU	36 ± 3%
GS3447 (nucleic acid) sense: CAACAGCUUGAAUUGCACGGAAUUAUCACUAUCAUCCCGACUAAGCCUCUCAAAAAGCAAAAUUUAUUUGCUAGCUCGGAAAAGAUAACAGCUAGCUACGCAAAAGCUAUUCAAGAUGGUUGUUGGCAUUCAUUUUCGCCAAACUCUCAGAAAAGCUGCAACAAAUCCCCGUCAUAUAGAAAACAACUCUAAUCAGCCAGAAACUAUGUUGUCCGGAGAAAAUAUUGGGUUACUUACGGGGCGAACAUCAAACGCCCGCAAAAGUGCGUGGCGACAAAUUUACGAUGUACUCGGAAGCAAACAUUAUUCAGCCGGAAAAGAUAGUGAUAGUAAAAUUGUACGAGCUAUAGCGCCAACUAUUCAGAUUACAAAAAUUACGUUAUACAGUAAUUAUGUC antisense: GACAUAAUUACUGUAUAACGUAAUUUUUGUAAUCUGAAUAGUUGGCGCUAUAGCUCGUACAAUUUUACUAUCACUAUCUUUUCCGGCUGAAUAAUGUUUGCUUCCGAGUACAUCGUAAAUUUGUCGCCACGCACUUUUGCGGGCGUUUGAUGUUCGCCCCGUAAGUAACCCAAUAUUUUCUCCGGACAACAUAGUUUCUGGCUGAUUAGAGUUGUUUUCUAUAUGACGGGGAUUUGUUGCAGCUUUUCUGAGAGUUUGGCGAAAAUGAAUGCCAACAACCAUCUUGAAUAGCUUUUGCGUAGCUAGCUGUUAUCUUUUCCGAGCUAGCAAAUAAAUUUUGCUUUUUGAGAGGCUUAGUCGGGAUGAUAGUGAUAAUUCCGUGCAAUUCAAGCUGUUG	35 ± 3%
